Laboratory results published in US20240000957A1 (published 2024).
*1 amine or outer side, *2 acyl side, *3 side chain or, on linkers, in order; H or OH if unused. Bridges are numbered along the chain shown (N, C = ends). Where no end group is shown, it is not given here. [ ]: non-standard residue; d: D form. TATA = O=C(CC[*:1])N1CN(C(=O)CC[*:2])CN(C(=O)CC[*:3])C1; Hyp = O=C(O)[C@@H]1C[C@@H](O)CN1; hArg = N=C(N)NCCCC[C@H](N)C(=O)O; βAla = NCCC(=O)O; Sar = CNCC(=O)O

B1: BCY6032 (peptide)
peptide: AXDCPLVNPLCLHPGWTC
modifications: not fully specified; as BCY6014 (N-terminal (β-Ala)-Sar10; HArg; TATA scaffold on the 3 Cys) + DM1-SS-(Me)-
notes: Bicycle drug conjugate (BDC)
B2: BCY6031 (peptide)
peptide: AXDCPLVNPLCLHPGWTC
modifications: not fully specified; as BCY6014 (N-terminal (β-Ala)-Sar10; HArg; TATA scaffold on the 3 Cys) + DM1-SS-
notes: Bicycle drug conjugate (BDC)
B3: BCY6039 (peptide)
peptide: AXDCPLVNPLCLHPGWTC
modifications: not fully specified; as BCY6014 (N-terminal (β-Ala)-Sar10; HArg; TATA scaffold on the 3 Cys) + DM1-(Me)-SS-(Me)-
notes: Bicycle drug conjugate (BDC)
B4: BCY6106 (peptide)
peptide: AXDCPLVNPLCLHPGWTC
modifications: not fully specified; as BCY6014 (N-terminal (β-Ala)-Sar10; HArg; TATA scaffold on the 3 Cys) + MMAE-D-Ala-Phe-Lys-
notes: Bicycle drug conjugate (BDC)
B5: BCY6105 (peptide)
peptide: AXDCPLVNPLCLHPGWTC
modifications: not fully specified; as BCY6014 (N-terminal (β-Ala)-Sar10; HArg; TATA scaffold on the 3 Cys) + MMAE-Ala-Ala-Asn
notes: Bicycle drug conjugate (BDC)
B6: BCY6107 (peptide)
peptide: AXDCPLVNPLCLHPGWTC
modifications: not fully specified; as BCY6014 (N-terminal (β-Ala)-Sar10; HArg; TATA scaffold on the 3 Cys) + MMAE-Glu-Pro-Cit-Gly-hPhe-Tyr-Leu-
notes: Bicycle drug conjugate (BDC)
B7: BCY6061 (peptide)
peptide: AXDCPLVNPLCLHPGWTC
modifications: not fully specified; as BCY6014 (N-terminal (β-Ala)-Sar10; HArg; TATA scaffold on the 3 Cys) + ValLys-MMAE
notes: Bicycle drug conjugate (BDC)
B8: BCY6174 (peptide)
peptide: [βAla][Sar][Sar][Sar][Sar][Sar][Sar][Sar][Sar][Sar][Sar]A[hArg]DC[Hyp]LVNPLCLHP[dD]W[hArg]C
modifications: linker 15-22-29 via TATA; not fully specified (N-terminus, C-terminus); also: ValLys-MMAE conjugate, site not given here
notes: Bicycle drug conjugate (BDC)
B9: BCY6173 (peptide)
peptide: [βAla][Sar][Sar][Sar][Sar][Sar][Sar][Sar][Sar][Sar][Sar]A[hArg]DC[Hyp]LVNPLCLHP[dD]W[hArg]C
modifications: linker 15-22-29 via TATA; not fully specified (N-terminus, C-terminus); numbers in words are those of the source; also: DM1-SS(SO3H)- conjugate, site not given here
notes: Bicycle drug conjugate (BDC)
B10: BCY6135 (peptide)
peptide: [βAla][Sar][Sar][Sar][Sar][Sar][Sar][Sar][Sar][Sar][Sar]A[hArg]DC[Hyp]LVNPLCLHP[dD]W[hArg]C
modifications: linker 15-22-29 via TATA; not fully specified (N-terminus, C-terminus); numbers in words are those of the source; also: DM1-SS- conjugate, site not given here
notes: Bicycle drug conjugate (BDC)
B11: BCY6136 (peptide)
peptide: [βAla][Sar][Sar][Sar][Sar][Sar][Sar][Sar][Sar][Sar][Sar]A[hArg]DC[Hyp]LVNPLCLHP[dD]W[hArg]C
modifications: linker 15-22-29 via TATA; not fully specified (N-terminus, C-terminus); also: ValCit-MMAE conjugate, site not given here
notes: Bicycle drug conjugate (BDC); also called BT5528

What follows are binders tested against T1, Mouse EphA2 (Ecto) (Mouse, UniProt Q03145 26-538) (assay: FP competition vs Reference Compound C).
T1 construct: extracellular domain; Fluorescence polarisation assays; not shown: Fc fusion (R&D Systems 639-A2) or C-terminal polyHis (Sino Biological 50586-M08H)
T1 sequence (Q03145 26-538): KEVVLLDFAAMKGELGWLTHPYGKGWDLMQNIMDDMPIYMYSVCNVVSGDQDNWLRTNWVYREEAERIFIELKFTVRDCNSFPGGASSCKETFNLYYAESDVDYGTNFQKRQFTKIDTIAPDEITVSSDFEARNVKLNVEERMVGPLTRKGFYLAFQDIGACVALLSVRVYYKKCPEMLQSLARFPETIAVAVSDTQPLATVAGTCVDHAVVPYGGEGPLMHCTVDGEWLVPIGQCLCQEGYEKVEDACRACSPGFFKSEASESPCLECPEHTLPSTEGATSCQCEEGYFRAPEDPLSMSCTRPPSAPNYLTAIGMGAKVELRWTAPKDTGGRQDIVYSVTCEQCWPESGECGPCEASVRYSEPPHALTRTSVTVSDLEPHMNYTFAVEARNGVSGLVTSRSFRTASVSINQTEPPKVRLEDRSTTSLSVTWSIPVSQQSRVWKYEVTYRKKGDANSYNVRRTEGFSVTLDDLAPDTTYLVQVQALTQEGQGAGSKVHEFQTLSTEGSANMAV

Binder | Ki [nM]
B1 | 35.9
B2 | 34.7

The binders below were run against T2, Human EphA2 (Ecto), C-terminal polyHis (Human, UniProt P29317 24-537) (assay: FP competition vs Reference Compound C).
T2 construct: extracellular domain; R&D systems 3035-A2 or in-house
T2 sequence (P29317 24-537): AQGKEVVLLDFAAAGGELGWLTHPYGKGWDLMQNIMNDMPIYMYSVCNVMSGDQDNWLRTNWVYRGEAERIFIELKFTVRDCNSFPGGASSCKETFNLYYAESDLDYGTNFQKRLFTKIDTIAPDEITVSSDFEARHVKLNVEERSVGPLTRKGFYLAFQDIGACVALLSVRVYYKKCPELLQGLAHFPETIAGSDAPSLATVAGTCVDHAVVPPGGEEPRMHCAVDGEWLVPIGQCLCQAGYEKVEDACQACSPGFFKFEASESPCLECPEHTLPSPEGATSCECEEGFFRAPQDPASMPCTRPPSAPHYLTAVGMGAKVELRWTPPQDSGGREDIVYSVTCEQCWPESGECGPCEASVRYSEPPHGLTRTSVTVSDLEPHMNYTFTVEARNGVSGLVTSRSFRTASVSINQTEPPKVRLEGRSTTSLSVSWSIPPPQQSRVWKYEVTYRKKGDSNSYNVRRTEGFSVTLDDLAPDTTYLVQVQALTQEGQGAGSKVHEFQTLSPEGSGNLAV

Binder | Ki [nM]
B1 | 11.4
B2 | 12.6

The binders below were run against T2, Human EphA2 (Ecto), C-terminal polyHis (assay: FP competition vs Reference Compound C (Study 2)).

Binder | Ki [nM]
B3 | 9.4
B4 | 12.9
B5 | 8.86
B6 | 19.2

What follows are binders tested against T2, Human EphA2 (Ecto), C-terminal polyHis (assay: FP competition vs Reference Compound B).

Binder | Ki [nM]
ACSPTPACAVQNLCA (linker 2-8-14 via TATA; not fully specified (C-terminus)) [Compound 31] | 177
ACYVGKECAYMNVCA (linker 2-8-14 via TATA; not fully specified (C-terminus)) [Compound 29] | 107
ACQPSNHCAFMNYCA (linker 2-8-14 via TATA) [Compound 30] | 187

These binders were tested against T2, Human EphA2 (Ecto), C-terminal polyHis (assay: FP competition vs Reference Compound A).

Binder | Ki [nM]
ACYVGKECAYMNVCA (linker 2-8-14 via TATA; not fully specified (C-terminus)) [Compound 29] | 87.7
ACTSCWAYPDSFCA (linker 2-5-13 via TATA; not fully specified (C-terminus)) [Compound 32] | 151
ACQPSNHCAFMNYCA (linker 2-8-14 via TATA) [Compound 30] | 137

Target: T2, Human EphA2 (Ecto), C-terminal polyHis
Experiment: FP competition vs Reference Compound C
Remark: another data set of the same source

Binder | Ki [nM]
ACSPTPACAVQNLCA (linker 2-8-14 via TATA; not fully specified (C-terminus)) [Compound 31] | 223
ACYVGKECAYMNVCA (linker 2-8-14 via TATA; not fully specified (C-terminus)) [Compound 29] | 210
ACTSCWAYPDSFCA (linker 2-5-13 via TATA; not fully specified (C-terminus)) [Compound 32] | 232

Each binder was assayed against T1, Mouse EphA2 (Ecto) (assay: FP competition vs Reference Compound C (Study 2)).

Binder | Ki [nM]
B7 | 32.3
B1 | 35.9
B2 | 35.1

Target: T2, Human EphA2 (Ecto), C-terminal polyHis
Experiment: FP competition vs Reference Compound C (Study 2)
Remark: another data set of the same source

Binder | Ki [nM]
B7 | 12
B1 | 11.4
B2 | 12.5

Each binder was assayed against T3, Rat EphA2 (ligand binding), C-terminal polyHis (Rat) (assay: FP competition vs Reference Compound C (Study 2)).
T3 construct: In-house

Binder | Ki [nM]
B7 | 14.2
B8 | 3
B9 | 2.5
B10 | 2.9
B11 | 3.2
B2 | 20
